Columns and labels:
Type in all cases: biochemical
[1] = test system: FITC-labelled LPQTGE peptide and GGGK-biotin; experiment: Optimization of sortase conjugation reaction conditions, HPLC-based assay; details: initial rate (samples up to 3 hours), RP-HPLC, pH 8.5, NaCl, 25° C.
Description: The reaction was performed at 25° C. over a period of 24 hours (with 6 samplings in the period up to 3 hours), independently varying the following parameters: • pH over a range of 4 to 11 (using a mixture of boric and citric acid, along with phosphate buffer to achieved the desired pH), while the concentration of NaCl at 500 mM; • NaCl concentration over a range of 0 to 3 M, while maintaining the pH at 8.5 (using 50 mM of sodium phosphate to establish the desired pH).
The reaction was stopped by adding 95 μL of 0.05 M HCl per 5 μL of reaction mixture. Reaction products were loaded into XBridge C18 HPLC columns equilibrated in 0.1% NH4OH in 5% methanol. Elution was performed with a linear gradient from 0 to 100% of 0.1% NH4OH in 95% methanol over 10 mL at flow rate of 0.5 mL/min and a temperature of 30° C. Eluted peptides were detected by absorbance at 497 nm and fluorescence at 522 nm (excitation at 497 nm) and peak areas were quantified.

[2] = test system: self-quenching peptide Dabcyl-QALPQTGET-Edans and triglycine; experiment: Optimization of sortase conjugation reaction conditions, fluorescence assay; details: initial rate, temperature varied 15 to 45° C., pH 8.5, 500 mM NaCl
Description: Reactions were performed over a period of 1 hour, varying the reaction temperature between 15 and 45° C. and measuring fluorescence over time (using a plate reader or fluorescence spectrometer, with excitation at 350 nm and emission at 495 nm).
Initial rate of sortase F-mediated ligation at different temperatures was evaluated based on regression of the fluorescence over time.

[3] = test system: FITC-labelled LPXTGE, DNPNTGDE, ENPXTNAGT, KLPXTASN and ALAXTGSE peptides; experiment: Sortase activity assay, gel-based, FITC-labelled peptide substrates; details: conjugation to 60 kDa Gly6 protein, 25° C., 6 to 24 hours, FITC emission
Description: The reaction was performed at 25° C. for 6 to 24 hours, and stopped by addition of reducing SDS-PAGE loading buffer, followed by 5 min. incubation at 95° C. Reaction products were loaded on a 12% SDS-PAGE gel and run according to standard protocols. Labelled reaction products were visualized by FITC emission using the FLA-9000 Imager from Fujifilm, and quantified using ImageJ software.

B1: sortase F: recombinant sortase F enzyme from P. acnes KPA171202, with N-terminal MS peptide and C-terminal TwinStrep-comprising tag (protein)
chain: TTTSSTSGIPAASAAKKGPVPAGCMKTPKPIVPVKYSIDGMKASAKVLSRGVDETGAAGAPPKNDPSSMAWFNQGPKIGSDKGNAVLTAHTYHKGGALGNRLYDKNNGIKKGDIIRLTDKTGQTVCYRYDHDTKVMVKDYNPNSNILYDNNGPAQAAIVICWDYVKKTGEFDSRVIFYTYPVA
modifications: Propionibacterium acnes
salt concentration optimum for initial sortase F activity rate [1]: above 250 mM | temperature above which the reaction rate decreased [2]: above 40 °C | temperature optimum of sortase F activity rate [2]: about 25 °C | substrate peptide on which the enzyme is active [3]: principally active on the LPXTGE
